The source of these data is patent publication US20230340151A1 (Pfizer, published 2023).

The target of experiment [1] is T1, Cynomolgus GUCY2C-ECD Cleaved (cynomolgus, UniProt P25092 24-430 (human entry)).
T1 construct: also called CyGUCY2C
T1 chain: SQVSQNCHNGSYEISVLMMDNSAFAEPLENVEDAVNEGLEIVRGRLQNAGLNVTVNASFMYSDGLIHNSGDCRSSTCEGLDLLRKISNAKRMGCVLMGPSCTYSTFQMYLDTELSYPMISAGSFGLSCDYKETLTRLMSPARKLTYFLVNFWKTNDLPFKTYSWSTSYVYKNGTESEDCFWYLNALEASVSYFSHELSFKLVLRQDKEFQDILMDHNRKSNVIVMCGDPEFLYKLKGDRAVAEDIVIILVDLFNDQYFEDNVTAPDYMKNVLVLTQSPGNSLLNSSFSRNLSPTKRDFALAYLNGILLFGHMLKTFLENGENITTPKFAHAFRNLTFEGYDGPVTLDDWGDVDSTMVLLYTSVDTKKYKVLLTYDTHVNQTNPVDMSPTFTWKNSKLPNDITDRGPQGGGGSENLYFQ
Kind of experiment: SPR, GUCY2c directly immobilized, 37 C. (In general: In SPR one partner is held on a chip, and binding of the other changes the refractive index at the surface.)
Experimental: (§1) Human GUCY2c, cyno GUCY2c and mouse GUCY2c were directly immobilized onto three different flow cells of a CM5 Sensor Chip (BR100530, GE Healthcare) surface using an amine coupling kit (BR100050, GE Healthcare) according to the manufacturer's protocol. […] Flow cell 1 was used as a reference flow cell. […] The dissociation was monitored for 400 seconds and the surface was regenerated with 10 mM Glycine pH 2.1. The running and sample buffer was 10 mM HEPES pH 7.4, 0.15 M NaCl, 3 mM EDTA, 0.05% P-20 (HBS-EP+). The data were double referenced. Binding affinities and rate constants were determined by fitting the resulting sensorgram data to a 1:1 Langmuir model in BIACORE™ T200 Evaluation software version 3.0 (GE Healthcare).

The target in experiment [2] is T1, Cynomolgus GUCY2C-ECD Cleaved. Kind of experiment: SPR, GUCY2c directly immobilized, 25 C.
Experimental: as §1
In experiment [3] the target is Human GUCY2c on tumor cells (T84, HT55) (human, UniProt P25092 24-1073). The experiment can be described thus: cell-based or functional assay.
Experiment [4] addresses T2, CID1878 (human-chicken GUCY2c chimera) (human/chicken).
T2 chain: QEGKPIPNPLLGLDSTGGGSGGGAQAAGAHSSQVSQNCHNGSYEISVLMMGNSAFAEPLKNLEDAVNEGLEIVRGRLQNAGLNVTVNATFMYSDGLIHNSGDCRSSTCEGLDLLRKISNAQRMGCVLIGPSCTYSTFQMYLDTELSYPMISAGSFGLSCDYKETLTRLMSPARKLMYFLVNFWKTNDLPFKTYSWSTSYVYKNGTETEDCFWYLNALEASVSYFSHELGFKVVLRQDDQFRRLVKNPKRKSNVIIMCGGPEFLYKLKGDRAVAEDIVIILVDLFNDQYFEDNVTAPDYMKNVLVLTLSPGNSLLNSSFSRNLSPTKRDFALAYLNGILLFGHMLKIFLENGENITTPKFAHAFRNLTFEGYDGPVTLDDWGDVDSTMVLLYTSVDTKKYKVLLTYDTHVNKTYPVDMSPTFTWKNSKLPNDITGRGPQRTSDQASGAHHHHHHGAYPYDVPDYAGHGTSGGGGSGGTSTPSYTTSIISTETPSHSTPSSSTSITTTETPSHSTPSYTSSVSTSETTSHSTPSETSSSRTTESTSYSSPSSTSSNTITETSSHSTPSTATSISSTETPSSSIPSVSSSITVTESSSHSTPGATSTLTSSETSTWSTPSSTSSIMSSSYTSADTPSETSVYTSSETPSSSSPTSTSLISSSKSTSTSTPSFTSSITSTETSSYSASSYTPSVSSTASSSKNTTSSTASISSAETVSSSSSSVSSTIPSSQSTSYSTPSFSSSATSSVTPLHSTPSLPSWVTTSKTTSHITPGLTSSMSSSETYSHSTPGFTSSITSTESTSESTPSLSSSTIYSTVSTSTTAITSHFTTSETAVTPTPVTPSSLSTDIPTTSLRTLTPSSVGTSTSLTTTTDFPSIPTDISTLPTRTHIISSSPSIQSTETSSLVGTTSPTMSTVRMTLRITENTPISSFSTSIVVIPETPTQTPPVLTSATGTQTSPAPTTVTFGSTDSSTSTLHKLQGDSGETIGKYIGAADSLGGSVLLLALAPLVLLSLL
The experiment can be described thus: flow cytometry on cells displaying the construct. A general note: A flow cytometer gives signals particle by particle.
Text: Cells were then washed three times with PBS+0.5% BSA buffer. […] Cells were washed three times with PBS+0.5% BSA buffer and then analyzed on a flow cytometer.
MFI (median fluorescence intensity) of anti-GUCY2c antibody binding to the cells was normalized to expression on cell surface measured by MFI of anti-tag antibodies. All the cells expressed V5 and HA on the cell surface for expression normalization.

In the next experiment the target is T3, Human CD3 epsilon-delta (human).
T3 construct: Single-chain epsilon-linker-delta with His6; also called huCD3
T3 chain: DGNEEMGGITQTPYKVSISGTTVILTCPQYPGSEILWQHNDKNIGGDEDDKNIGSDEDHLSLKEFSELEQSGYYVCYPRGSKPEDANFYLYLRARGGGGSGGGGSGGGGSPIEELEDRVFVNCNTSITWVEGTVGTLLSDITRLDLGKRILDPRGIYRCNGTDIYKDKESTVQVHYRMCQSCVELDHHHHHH
The experiment can be described thus: SPR, recombinant human CD3.

Another experiment concerns the target T4, GUCY2C_ECD Peptide 55 (human).
T4 peptide: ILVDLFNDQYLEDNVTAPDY
Kind of experiment: peptide DELFIA ELISA.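 Note: epitope mapping using overlapping 20-mer GUCY2C peptides covering residues 1-440, extracellular into transmembrane domain, coated at 20 µg/ml as target antigen and probed with antibodies or GUCY2C-CD3 bispecifics.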 Background: ELISA stands for enzyme-linked immunosorbent assay.

Another experiment concerns the target T5, GUCY2C_ECD Peptide 41 (human).
T5 peptide: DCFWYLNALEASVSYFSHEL
The experiment can be described thus: peptide DELFIA ELISA.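 Note: epitope mapping using overlapping 20-mer GUCY2C peptides covering residues 1-440, extracellular into transmembrane domain, coated at 20 µg/ml as target antigen and probed with antibodies or GUCY2C-CD3 bispecifics.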

A further experiment concerns the target T6, GUCY2C_ECD Peptide 51 (human).
T6 peptide: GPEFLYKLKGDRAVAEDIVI
Kind of experiment: peptide DELFIA ELISA.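 Note: epitope mapping using overlapping 20-mer GUCY2C peptides covering residues 1-440, extracellular into transmembrane domain, coated at 20 µg/ml as target antigen and probed with antibodies or GUCY2C-CD3 bispecifics.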

In the next experiment the target is T7, GUCY2C_ECD Peptide 64 (human).
T7 peptide: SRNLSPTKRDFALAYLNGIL
Kind of experiment: peptide DELFIA ELISA.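 Note: epitope mapping using overlapping 20-mer GUCY2C peptides covering residues 1-440, extracellular into transmembrane domain, coated at 20 µg/ml as target antigen and probed with antibodies or GUCY2C-CD3 bispecifics.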

The target in the next experiment is T8, GUCY2C_ECD Peptide 15 (human).
T8 peptide: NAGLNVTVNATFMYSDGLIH
Kind of experiment: peptide DELFIA ELISA.

The next experiment has as its target T9, GUCY2C_ECD Peptide 12 (human).
T9 peptide: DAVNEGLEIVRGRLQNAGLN
Kind of experiment: peptide DELFIA ELISA.

Another experiment deals with T10, GUCY2C_ECD Peptide 19 (human).
T10 construct: also called GUCY2c peptide 19; GUCY2c-ECD peptide number 19
T10 peptide: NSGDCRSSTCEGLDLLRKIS
Kind of experiment: peptide DELFIA ELISA.

In the next experiment the target is T11, GUCY2C_ECD Peptide 20 (human).
T11 peptide: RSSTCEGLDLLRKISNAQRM
Kind of experiment: peptide DELFIA ELISA.

In another experiment the target is T12, GUCY2C_ECD Peptide 2 (human).
T12 peptide: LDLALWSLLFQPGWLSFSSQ
Kind of experiment: peptide DELFIA ELISA.

The target of another experiment is T13, GUCY2C_ECD Peptide 50 (human).
T13 peptide: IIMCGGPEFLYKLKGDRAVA
Kind of experiment: peptide DELFIA ELISA.

The target in another experiment is T14, GUCY2C_ECD Peptide 78 (human).
T14 peptide: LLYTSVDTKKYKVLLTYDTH
Kind of experiment: peptide DELFIA ELISA.

For experiment [5], the target named is T1, Cynomolgus GUCY2C-ECD Cleaved. The experiment can be described thus: direct DELFIA, RT.

Sequence of Human GUCY2c on tumor cells (T84, HT55) (P25092 24-1073 limits assumed): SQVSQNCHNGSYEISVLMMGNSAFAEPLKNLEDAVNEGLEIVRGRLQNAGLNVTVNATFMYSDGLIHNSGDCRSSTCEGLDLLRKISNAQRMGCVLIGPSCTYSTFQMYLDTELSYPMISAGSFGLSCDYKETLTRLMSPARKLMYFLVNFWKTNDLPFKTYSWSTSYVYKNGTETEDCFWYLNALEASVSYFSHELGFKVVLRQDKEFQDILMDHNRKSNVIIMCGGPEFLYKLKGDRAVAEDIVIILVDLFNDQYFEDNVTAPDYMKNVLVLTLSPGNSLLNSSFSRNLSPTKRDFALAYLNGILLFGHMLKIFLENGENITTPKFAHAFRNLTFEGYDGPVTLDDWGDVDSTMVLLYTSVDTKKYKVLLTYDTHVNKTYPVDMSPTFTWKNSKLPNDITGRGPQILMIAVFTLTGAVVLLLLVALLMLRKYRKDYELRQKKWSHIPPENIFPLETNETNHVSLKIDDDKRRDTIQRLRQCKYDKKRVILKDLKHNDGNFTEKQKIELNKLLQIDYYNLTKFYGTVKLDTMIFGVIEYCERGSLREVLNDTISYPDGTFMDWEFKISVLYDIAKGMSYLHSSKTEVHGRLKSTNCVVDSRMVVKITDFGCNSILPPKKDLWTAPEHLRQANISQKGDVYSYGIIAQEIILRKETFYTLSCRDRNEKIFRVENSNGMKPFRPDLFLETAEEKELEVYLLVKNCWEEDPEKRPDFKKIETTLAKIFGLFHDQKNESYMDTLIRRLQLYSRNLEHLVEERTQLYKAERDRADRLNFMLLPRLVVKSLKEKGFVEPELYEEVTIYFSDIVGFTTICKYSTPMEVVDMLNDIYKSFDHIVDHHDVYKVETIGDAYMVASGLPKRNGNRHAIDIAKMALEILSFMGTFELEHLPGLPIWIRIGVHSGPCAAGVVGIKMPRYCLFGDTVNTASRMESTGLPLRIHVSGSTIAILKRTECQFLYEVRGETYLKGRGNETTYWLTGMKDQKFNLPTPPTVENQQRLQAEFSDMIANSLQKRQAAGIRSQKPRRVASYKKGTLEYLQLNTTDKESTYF
Experimental for GUCY2C_ECD Peptide 12: (§2) Arrays were reconstituted with acetonitrile to 100 μg/ml and were then further diluted to 20 μg/ml with sodium carbonate/bicarbonate buffer. Purified antibodies or GUCY2c-CD3 bispecifics were then tested by Delfia ELISA for binding to the different peptides using Delfia ELISA methods previously discussed, with diluted peptides used as the target antigen.
Experimental for GUCY2C_ECD Peptide 15: as §2
Experimental for GUCY2C_ECD Peptide 19: as §2
Experimental for GUCY2C_ECD Peptide 20: as §2
Experimental for GUCY2C_ECD Peptide 41: as §2
Experimental for GUCY2C_ECD Peptide 50: as §2
Experimental for GUCY2C_ECD Peptide 51: as §2
Experimental for GUCY2C_ECD Peptide 55: as §2
Experimental for GUCY2C_ECD Peptide 64: as §2
Experimental for GUCY2C_ECD Peptide 78: as §2

B1: GUCY2C-1608 (bispecific antibody)
chain 1: DIQLTQSPSSLSASVGDRVTITCRASESVDYYGSSLLQWYQQKPGKAPKLLIYAASKLASGVPSRFSGSGSGTDFTLTISSLQPEDFATYYCQQTRKAYTFGQGTKLEIKGGGSGGGGEVQLVESGGGLVQPGGSLRLSCAASGFTFSDYYMTWVRQAPGKGLEWVAFIRNQARGYTSDHNPSVKGRFTISRDNAKNSLYLQMNSLRAEDTAVYYCARDRPSYYVLDYWGQGTTVTVSSGCPPCPAPEAAGAPSVFLFPPKPKDTLMISRTPEVTCVVVDVSHEDPEVKFNWYVDGVEVHNAKTKPREEQYNSTYRVVSVLTVLHQDWLNGKEYKCKVSNKALPAPIEKTISKAKGQPREPQVCTLPPSREEMTKNQVSLWCLVKGFYPSDIAVEWESNGQPENNYKTTPPVLDSDGSFFLYSKLTVDKSRWQQGNVFSCSVMHEALHNHYTQKSLSLSPG
chain 2: DIQMTQSPSSLSASVGDRVTITCTSSQSLFNVRSQKNYLAWYQQKPGKAPKLLIYWASTRESGVPSRFSGSGSGTDFTLTISSLQPEDFATYYCKQSYDLFTFGGGTKVEIKGGGGSGGGGEVQLVESGGGLVQPGGSLRLSCAASGFTFSSYWMHWVRQAPGKGLEWIGEIKPSNELTNVHEKFKDRFTISVDKAKNSAYLQMNSLRAEDTAVYYCTRTITTTEGYWFFDVWGQGTLVTVSSGCPPCPAPEAAGAPSVFLFPPKPKDTLMISRTPEVTCVVVDVSHEDPEVKFNWYVDGVEVHNAKTKPREEQYNSTYRVVSVLTVLHQDWLNGKEYKCKVSNKALPAPIEKTISKAKGQPREPQVYTLPPCREEMTKNQVSLSCAVKGFYPSDIAVEWESNGQPENNYKTTPPVLDSDGSFFLVSKLTVDKSRWQQGNVFSCSVMHEALHNHYTQKSLSLSPG
notes: also called GUCY2c CD3 bispecific
As usually defined, the Kd is a measure of binding affinity in units of concentration. In general, koff refers to a measure of how fast the partners let go of each other. A low value points to slow dissociation. Usually kon stands for the rate constant with which the complex forms. A high value points to faster complex formation. As usually defined, the EC50 is the concentration at which the effect is half-maximal. A low value points to greater potency. As to B1, the Kd in experiment [1] was 8.68 nM; in experiment [2], 3.01 nM; in the experiment with Human CD3 epsilon-delta, 128 nM. In addition, the koff in [1] stood at 0.00166 s⁻¹; in experiment [2], 0.000417 s⁻¹. Also, the kon amounted to 191000 M⁻¹ s⁻¹ in experiment [1] and 138000 M⁻¹ s⁻¹ in experiment [2]. In experiment [3], the “T84 tumor cell EC50 (T cell cytotoxicity, E:T 5:1)” value amounted to 0.19 nM. Further, the binding result in experiment [4] is “binds”. Also, the “DELFIA TRF” value stood at 100 with GUCY2C_ECD Peptide 55; 161 with GUCY2C_ECD Peptide 41; 96.8 with GUCY2C_ECD Peptide 51; 116 in the experiment with GUCY2C_ECD Peptide 64; 88.8 with GUCY2C_ECD Peptide 15; 259 with GUCY2C_ECD Peptide 12. The “DELFIA TRF” value turned out to be 19200 with GUCY2C_ECD Peptide 19; 3210 with GUCY2C_ECD Peptide 20; 106 in the experiment with GUCY2C_ECD Peptide 2; 161 in the experiment with GUCY2C_ECD Peptide 50; 97.8 in the experiment with GUCY2C_ECD Peptide 78. Further, the EC50 in experiment [5] turned out to be 9.84 nM.
